# Results published in IntAct's records for PubMed 20010843.
# B1: Cadherin-5 (Homo sapiens), P33151 (parent)
# chain: MQRLMMLLATSGACLGLLAVAAVAAAGANPAQRDTHSLLPTHRRQKRDWIWNQMHIDEEKNTSLPHHVGKIKSSVSRKNAKYLLKGEYVGKVFRVDAETGDVFAIERLDRENISEYHLTAVIVDKDTGENLETPSSFTIKVHDVNDNWPVFTHRLFNASVPESSAVGTSVISVTAVDADDPTVGDHASVMYQILKGKEYFAIDNSGRIITITKSLDREKQARYEIVVEARDAQGLRGDSGTATVLVTLQDINDNFPFFTQTKYTFVVPEDTRVGTSVGSLFVEDPDEPQNRMTKYSILRGDYQDAFTIETNPAHNEGIIKPMKPLDYEYIQQYSFIVEATDPTIDLRYMSPPAGNRAQVIINITDVDEPPIFQQPFYHFQLKENQKKPLIGTVLAMDPDAARHSIGYSIRRTSDKGQFFRVTKKGDIYNEKELDREVYPWYNLTVEAKELDSTGTPTGKESIVQVHIEVLDENDNAPEFAKPYQPKVCENAVHGQLVLQISAIDKDITPRNVKFKFILNTENNFTLTDNHDNTANITVKYGQFDREHTKVHFLPVVISDNGMPSRTGTSTLTVAVCKCNEQGEFTFCEDMAAQVGVSIQAVVAILLCILTITVITLLIFLRRRLRKQARAHGKSVPEIHEQLVTYDEEGGGEMDTTSYDVSVLNSVRRGGAKPPRPALDARPSLYAQVQKPPRHAPGAHGGPGEMAAMIEVKKDEADHDGDGPPYDTLHIYGYEGSESIAESLSSLGTDSSDSDVDYDFLNDWGPRFKMLAELYGSDPREELLY
# partner: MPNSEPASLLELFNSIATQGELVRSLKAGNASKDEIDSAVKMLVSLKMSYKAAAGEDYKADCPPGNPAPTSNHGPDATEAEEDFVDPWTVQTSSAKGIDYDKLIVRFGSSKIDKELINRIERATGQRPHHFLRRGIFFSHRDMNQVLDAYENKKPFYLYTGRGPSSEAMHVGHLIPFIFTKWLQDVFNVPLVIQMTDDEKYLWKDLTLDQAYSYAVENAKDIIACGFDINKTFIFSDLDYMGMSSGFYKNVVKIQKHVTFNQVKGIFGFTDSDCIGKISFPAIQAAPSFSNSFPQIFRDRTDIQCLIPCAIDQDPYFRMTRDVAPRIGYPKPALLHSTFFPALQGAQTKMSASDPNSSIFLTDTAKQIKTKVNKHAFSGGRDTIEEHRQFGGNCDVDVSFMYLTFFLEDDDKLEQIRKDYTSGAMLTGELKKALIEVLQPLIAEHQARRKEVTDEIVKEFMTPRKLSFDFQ
# B2: Tryptophan--tRNA ligase, cytoplasmic (Homo sapiens), P23381 (parent)
# chain: B1 partner
# partner: B1 chain
# Variants of: B1
# Details: with sywc_human WARS1, P23381
row,Variant,effect of a mutation on the interaction
1,W49A,disrupting interaction
2,W49A;W51A,disrupting interaction
3,W51A,disrupting interaction

# Variants of: B2
# Details: with cadh5_human CDH5, P33151
row,Variant,effect of a mutation on the interaction
1,G161W,disrupting interaction
2,G172M,disrupting interaction
3,Y159A;Q194A,disrupting interaction
4,A310W,disrupting interaction
